Consider 11 molecules from US20140171623A1 (published 2014).

In experiment [1] the target is T1, human EphA2-Fc (human, UniProt P29317 25-534, limits assumed).
T1 construct: not shown: Fc part; origin and limits not described
The experiment in a line: KinExA, solution equilibrium titration with human EphA2-Fc. As to the method: Protein concentrations were calculated by the BCA method. […] Coated beads were then separated from unreacted EphA2-Fc using a gentle pulse spin and blocked for approximately 2 h at room temperature with 1 M Tris, pH 8.0, bovine serum albumin 10 mg/mL. Beads were then resuspended in 30 mL of run buffer (PBS, pH 7.4-0.02% NaN₃) and packed into a column. […] The amount of free IgG in the samples was derived from the fluorescence signal obtained after the passing of Cy5-labeled goat anti-human IgG F(ab′)₂ (typically 0.5-2 μg/ml; Jackson ImmunoResearch Laboratories, West Grove, Pa.) through the column. Dissociation constants (KDs) were determined by fitting the individual equilibrium titration data to a 1:1 binding model using the KinExA Pro 1.0.3. software.

Experiment [2] has as its target T2, human C1q (Quidel) (human, UniProt P02745 23-245; P02746 28-253; P02747 29-245).
T2 construct: Bought protein (Quidel, CA); In the CDC assays C1q came with normal human serum complement; also called complement protein C1q; soluble human C1q
The experiment in a line: SPR (BIAcore 3000), IgG immobilised, soluble human C1q, equilibrium fit. How it is done:
Protein concentrations were calculated by the bicinchoninic acid methods. The different human IgG1s were coupled to the dextran matrix of a CM5 sensor chip (Pharmacia Biosensor) using an Amine Coupling Kit as described (Johnsson et al., 1991, Anal. Biochem. 198: 268-77) at a surface density of between 4830 and 9221 RU. Excess reactive esters were quenched by injection of 70 μl of 1.0 M ethanolamine hydrochloride, pH 8.5. […] Dilutions and binding experiments were carried out in 50 mM HBS buffer containing 0.01 M HEPES pH 7.4, 0.15 M NaCl, 3 mM EDTA and 0.005% P-20. Data were collected for about […], and two 1-min pulse of 1M NaCl/50 mM NaOH were used to regenerate the surfaces. Human C1q was allowed to flow over an uncoated cell, and the sensorgrams from these blank runs subtracted from those obtained with IgG1-coupled chips.
For orientation: Surface plasmon resonance follows binding to a sensor surface in real time, without labels.

Experiment [3] has as its target T3, FLAG-tagged extracellular domain of human FcγRIIIA (F158 allotype) (human, UniProt P08637 17-208).
T3 construct: extracellular domain; Secreted from HEK 293 cells, purified on anti-FLAG M2 agarose; also called FLAG-tagged FcγRIIIA; Flag-tagged Human FcγRIIIA; not shown: FLAG tag
The experiment in a line: SPR (BIAcore 3000), IgG immobilised, soluble FLAG-tagged human FcγRIIIA, equilibrium fit. As to the method:
Protein concentrations were calculated by the bicinchoninic acid methods. The different human IgG1s were coupled to the dextran matrix of a CM5 sensor chip (Pharmacia Biosensor) using an Amine Coupling Kit as described (Johnsson et al., 1991, Anal. Biochem. 198: 268-77) at a surface density of between 7765 and 8385 RU. Excess reactive esters were quenched by injection of 70 μl of 1.0 M ethanolamine hydrochloride, pH 8.5. […] Dilutions and binding experiments were carried out in 50 mM HBS buffer containing 0.01 M HEPES pH 7.4, 0.15 M NaCl, 3 mM EDTA and 0.005% P-20. Data were collected for about 50 min, and one 30 sec pulse of 5 mM HCl was used to regenerate the surfaces. Flag-tagged human FcγRIIIA was allowed to flow over an uncoated cell, and the sensorgrams from these blank runs subtracted from those obtained with IgG1-coupled chips.

T1 sequence (P29317 25-534 limits assumed): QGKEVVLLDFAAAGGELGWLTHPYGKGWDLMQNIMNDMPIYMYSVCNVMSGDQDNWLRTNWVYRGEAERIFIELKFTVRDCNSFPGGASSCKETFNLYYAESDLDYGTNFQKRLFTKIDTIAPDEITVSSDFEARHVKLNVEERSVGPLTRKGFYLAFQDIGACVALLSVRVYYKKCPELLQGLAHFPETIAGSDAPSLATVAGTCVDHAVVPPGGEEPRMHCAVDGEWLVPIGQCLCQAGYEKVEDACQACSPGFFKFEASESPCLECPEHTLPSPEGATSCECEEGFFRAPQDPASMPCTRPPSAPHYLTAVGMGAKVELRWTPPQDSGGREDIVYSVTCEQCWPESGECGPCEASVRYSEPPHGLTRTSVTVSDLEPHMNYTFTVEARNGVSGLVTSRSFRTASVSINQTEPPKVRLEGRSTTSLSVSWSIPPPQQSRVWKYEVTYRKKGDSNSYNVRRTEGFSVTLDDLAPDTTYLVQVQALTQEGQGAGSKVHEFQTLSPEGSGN
T2 sequence (P02745 23-245 limits assumed, chain 1 of 3): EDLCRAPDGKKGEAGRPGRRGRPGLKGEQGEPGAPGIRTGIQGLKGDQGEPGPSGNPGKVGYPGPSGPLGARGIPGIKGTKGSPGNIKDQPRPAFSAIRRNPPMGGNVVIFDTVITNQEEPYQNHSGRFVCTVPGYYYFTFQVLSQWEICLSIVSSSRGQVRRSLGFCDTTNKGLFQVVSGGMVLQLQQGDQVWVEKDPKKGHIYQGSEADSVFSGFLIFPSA
T2 sequence (P02746 28-253 limits assumed, chain 2 of 3): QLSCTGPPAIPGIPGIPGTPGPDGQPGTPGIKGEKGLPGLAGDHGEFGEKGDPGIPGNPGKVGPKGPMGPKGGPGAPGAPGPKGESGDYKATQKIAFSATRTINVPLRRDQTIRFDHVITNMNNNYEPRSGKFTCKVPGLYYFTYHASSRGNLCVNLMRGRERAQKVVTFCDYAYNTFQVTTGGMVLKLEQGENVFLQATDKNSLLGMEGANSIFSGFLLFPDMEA
T2 sequence (P02747 29-245 limits assumed, chain 3 of 3): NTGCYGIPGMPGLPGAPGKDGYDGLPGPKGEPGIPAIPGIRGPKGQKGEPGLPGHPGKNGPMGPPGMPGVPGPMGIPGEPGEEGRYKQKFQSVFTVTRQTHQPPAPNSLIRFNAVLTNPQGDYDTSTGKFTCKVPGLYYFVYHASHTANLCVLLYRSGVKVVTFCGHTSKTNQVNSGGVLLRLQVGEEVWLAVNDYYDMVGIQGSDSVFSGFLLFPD
T3 sequence (P08637 17-208): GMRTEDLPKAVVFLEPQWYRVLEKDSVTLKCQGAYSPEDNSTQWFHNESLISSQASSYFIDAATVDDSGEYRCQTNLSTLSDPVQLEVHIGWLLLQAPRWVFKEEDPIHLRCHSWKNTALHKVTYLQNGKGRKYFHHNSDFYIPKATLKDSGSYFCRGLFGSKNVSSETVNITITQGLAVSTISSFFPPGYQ

B1: mAb 12G3H11 (wild type hinge), human anti-human EphA2 IgG1 (antibody)
heavy: not shown
light: DIQMTQSPSSLSASVGDRVTITCRASQSISNNLHWYQQKPGKAPKLLIKYAFQSISGVPSRFSGSGSGTDFTFTISSLQPEDFATYYCQQANSWPLTFGGGTKVEIK
notes: domain: CH1;domain: lower hinge, CH2, CH3; Human IgG1/κ from HEK 293 cells; also called Wild type (12G3H11); not shown: human κ chain constant region
In general, Kd refers to the free concentration of one partner at which half of the binding sites on the other are occupied at equilibrium, for simple one-to-one binding. Low readings indicate a tighter complex, high ones a looser complex. On to B1, for which the values for the Kd in experiment [1], in experiment [2] and in experiment [3] were 0.0011 nM, 89 nM and 6050 nM, respectively.

B2: 12G3H11 Fc variant 13-2 AA Delete Mid (antibody, human IgG1)
heavy: not shown
light: DIQMTQSPSSLSASVGDRVTITCRASQSISNNLHWYQQKPGKAPKLLIKYAFQSISGVPSRFSGSGSGTDFTFTISSLQPEDFATYYCQQANSWPLTFGGGTKVEIK
notes: domain: CH1;domain: lower hinge, CH2, CH3; Human IgG1/κ; not shown: human κ chain constant region
B2: the Kd in experiment [1] is 0.0017 nM.

B3: 12G3H11 Fc variant 5-GGG Insert Low (antibody, human IgG1)
heavy: not shown
light: DIQMTQSPSSLSASVGDRVTITCRASQSISNNLHWYQQKPGKAPKLLIKYAFQSISGVPSRFSGSGSGTDFTFTISSLQPEDFATYYCQQANSWPLTFGGGTKVEIK
notes: as for B2
With B3, the Kd in experiment [1] is 0.0008 nM; in experiment [2], 282 nM.

B4: 12G3H11 Fc variant 8-PP to GG Low (antibody, human IgG1)
heavy: not shown
light: DIQMTQSPSSLSASVGDRVTITCRASQSISNNLHWYQQKPGKAPKLLIKYAFQSISGVPSRFSGSGSGTDFTFTISSLQPEDFATYYCQQANSWPLTFGGGTKVEIK
notes: as for B2
Turning to B4, the Kd was 155 nM in experiment [2] and 6400 nM in experiment [3].

B5: 12G3H11 Fc variant 18-EPKS to PPPP (antibody, human IgG1)
heavy: not shown
light: DIQMTQSPSSLSASVGDRVTITCRASQSISNNLHWYQQKPGKAPKLLIKYAFQSISGVPSRFSGSGSGTDFTFTISSLQPEDFATYYCQQANSWPLTFGGGTKVEIK
notes: as for B2
In the case of B5, the results for the Kd in experiment [1] and in experiment [2] were 0.0015 nM and 75 nM, respectively.

B6: 12G3H11 Fc variant 19-PP to WW Low (antibody, human IgG1)
heavy: not shown
light: DIQMTQSPSSLSASVGDRVTITCRASQSISNNLHWYQQKPGKAPKLLIKYAFQSISGVPSRFSGSGSGTDFTFTISSLQPEDFATYYCQQANSWPLTFGGGTKVEIK
notes: as for B2
Molecule B6 gave a Kd in experiment [2] of 274 nM.

B7: 12G3H11 Fc variant 20-KT to WW Mid (antibody, human IgG1)
heavy: not shown
light: DIQMTQSPSSLSASVGDRVTITCRASQSISNNLHWYQQKPGKAPKLLIKYAFQSISGVPSRFSGSGSGTDFTFTISSLQPEDFATYYCQQANSWPLTFGGGTKVEIK
notes: as for B2
In experiment [2], B7 had a Kd of 61 nM.

B8: 12G3H11 Fc variant 17-DKTHT to PPPPP (antibody, human IgG1)
heavy: not shown
light: DIQMTQSPSSLSASVGDRVTITCRASQSISNNLHWYQQKPGKAPKLLIKYAFQSISGVPSRFSGSGSGTDFTFTISSLQPEDFATYYCQQANSWPLTFGGGTKVEIK
notes: as for B2
B8 showed an equilibrium dissociation constant (Kd) in experiment [2] of 91 nM.

B9: 12G3H11 Fc variant 1-CD Invert (antibody, human IgG1)
heavy: not shown
light: DIQMTQSPSSLSASVGDRVTITCRASQSISNNLHWYQQKPGKAPKLLIKYAFQSISGVPSRFSGSGSGTDFTFTISSLQPEDFATYYCQQANSWPLTFGGGTKVEIK
notes: as for B2
On to B9, for which binding in experiment [2] was put at a Kd of 92 nM.

B10: 12G3H11 Fc variant 6-GGG Insert High (antibody, human IgG1)
heavy: not shown
light: DIQMTQSPSSLSASVGDRVTITCRASQSISNNLHWYQQKPGKAPKLLIKYAFQSISGVPSRFSGSGSGTDFTFTISSLQPEDFATYYCQQANSWPLTFGGGTKVEIK
notes: as for B2
Take B10: in experiment [1], binding was characterised by a dissociation constant (Kd) of 0.0027 nM.

B11: 12G3H11 Fc variant 14-T to C Middle (antibody, human IgG1)
heavy: not shown
light: DIQMTQSPSSLSASVGDRVTITCRASQSISNNLHWYQQKPGKAPKLLIKYAFQSISGVPSRFSGSGSGTDFTFTISSLQPEDFATYYCQQANSWPLTFGGGTKVEIK
notes: as for B2
B11 gave a Kd in experiment [1] of 0.0072 nM. Against the preceding molecule, the Kd is about 2.7-fold higher.
